# Assay results from the nanobody polyreactivity screen of Harvey et al. (2022).
# Assay: yeast display, Sf9 membrane polyspecificity reagent, FACS + sequencing; frameworks hold sequencing errors
# How it was run: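 In a synthetic yeast display library (Saccharomyces cerevisiae BJ5465), nanobody expression was induced with galactose for 36–48 hours. FACS gates were set low and high (top ~1%) using anti-HA fluorescence for expression and streptavidin fluorescence for binding of the Sf9 membrane reagent. Each polyreactivity label is drawn from the gate of origin.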
row,Sequence,polyreactivity (PSR sort gate)
1,QVQLVESGGGLVQAGGSLRLSCAASGSIFEPNAMGWYRQAPGKVRELVAAITSGGTTYADSVKGRFTISRDNAKNTVYLQMNSLKPEETAVYYCAADYSFVYYYPFDYWGQGTQVTVSS,low polyreactivity
2,QVQLVESGGGLVQAGGSLRLSCAASGSIFEPNAMVWYRQAPGKERELVAVISIDGITYYADSVKGRFTISRDNAKNSVYLQMNSLKPEDTAVYYCAAYLGQGESYGAYDYWGQGTQVTVSS,low polyreactivity
3,QVQLVESGGGLVQAGGSLRLSCAASGSIFEQNVMGWYRQAPGKERELVAAITRGGSTNYADSVKGRFTISRDNAKNTVYLQMNSLKPEDTAVYYCAKRRWLGPSTLDYWGQGTQVTVSS,low polyreactivity
4,QVQLVESGGGLVQAGGSLRLSCAASGSIFERYAMGWYRPAPGKERELVAGISSDGSTYADSVKGRFTISRDNAKNTVFLQMNSLKPEDTAVYYCAAAAWDPKGSRYDYWGQGTQVTVSS,low polyreactivity
5,QVQLVESGGGLVQAGGSLRLSCAASGSIFESYAMGWYRQAPGKERELVADITYDGGITYYADSVKGRFTISRDNAKNTVYLQLNSLKPEDTAVYYCAAQAWWGYYSRGPMDYWGQGTQVTVSS,low polyreactivity
6,QVQLVESGGGLVQAGGSLRLSCAASGSIFESYVMGWYRQAPGKERELVAAISSGGSTYYADSVKGRFTISRDNAKNTVYLQMNSLKPEDTAVYYCAANYDGGYLDYEAGYRLEYDYWGQGTQVTVSS,low polyreactivity
7,QVQLVESGGGLVQAGGSLRLSCAASGSIFEVYAMGWYRQAPGKERELVAAISGNGGSTYADSVKGRFTISRDNAKNTVYLQMNSLKPEDTAVYYCAAVPYGYGLASDSIFDYWGQGTQVTVSS,high polyreactivity
8,QVQLVESGGGLVQAGGSLRLSCAASGSIFEYNAMGWYRQAPWKERELVAAITSGGSTNYADSVKGRFTISRDNAKNTVYLQMNSLKPEDTAVYYCAKKYRSVPKYLYRITKYNYWGQGTQVTVSS,low polyreactivity
9,QVQLVESGGGLVQAGGSLRLSCAASGSIFEYYAMGWYRQAPGKERELVASITSSGTTYYADSVKGRFTISRDNAKNTVYLQMNSLKPEDTAVYYCAAYFAYLDSYVTYEYDYWGQGTQVTVSS,low polyreactivity
10,QVQLVESGGGLVQAGGSLRLSCAASGSIFEYYAMGWYRQAPGKERELVATITGTDSTYYADSVKGRFTISRDNAKNTVYLQMNSLKPEDTADCAADRAASRPDYDYWGQGTQVTVSS,low polyreactivity
11,QVQLVESGGGLVQAGGSLRLSCAASGSIFEYYAMGWYRTAPGKERELVAAISSGGPTYYADSVKGRFTISRDNAKNTVYLQMNSLKPEDSAVYYCNADLWYPDYDYWGQGTQVTVSS,low polyreactivity
12,QVQLVESGGGLVQAGGSLRLSCAASGSIFFEYAMGWSRQAPGKERELVASINRGGGSTYYSDSVKGRFTISRDNAKNTVYLQMNSLKPEDTAVSYCAAQWKYRQSYLDYYSGQGTQVTVSS,low polyreactivity
13,QVQLVESGGGLVQAGGSLRLSCAASGSIFFEYAMGWYRQAPGKERELVASINRGGGSTYYADSVKGRFTISRDNAKNTVYLQMNSLKPEDTAVYYCAAQWKYRQSYLDYYWGQGTQVTVSS,low polyreactivity
14,QVQLVESGGGLVQAGGSLRLSCAASGSIFFFNAMGWYRQAPGKEREMVAAISESGTSTYYADSVKGRFTISRDNAKNTVYLQMNSLKPEDTAVYYCNVVFRYAYGVYYTPEFYYWGQGTQVTVSS,low polyreactivity
15,QVQLVESGGGLVQAGGSLRLSCAASGSIFFGNAMGWYRQAPGKERELVAASTTSGGSTYYADSVKGRFTISRDNAKNTVYLQMNSLKPEDTAVYYCNAEYRTGVDGPRSRGGDYWGQGTQVTVSS,low polyreactivity
16,QVQLVESGGGLVQAGGSLRLSCAASGSIFFGNDKGWYRQAPGKERELVAGISNGGRTNYADSVKGRFTISRDNAKNTVYLQMNSLKPEDTAVYYCAKHPVYIYWSRVLVGYYSWGQGTQVTVSS,low polyreactivity
17,QVQLVESGGGLVQAGGSLRLSCAASGSIFFGNVMGWYRQAPGKERELVAVISWSGGTTYYADSVKGRFTISRDNAKNTVYLQMNSLKAEYTAVYYCNARYLRRGDYWGQGTQVTVSS,low polyreactivity
18,QVQLVESGGGLVQAGGSLRLSCAASGSIFFHYAMGWYIQAPGKERELVAAITWDGGSTYYADSVKGRFTISRDNAKNTVYLQMNSLKPEDTAVYYCNADQDLSTDEDYWGQGTQVTVSS,low polyreactivity
19,QVQLVESGGGLVQAGGSLRLSCAASGSIFFIYDMGWYRQAPGKERELVADITSGGGSTFYADSVKGRFTISRDNAKNTVYLQMNSLKPEDTAVYYCATDDHDQPGGQLYITEVNYWGQGTQVTVSS,low polyreactivity
20,QVQLVESGGGLVQAGGSLRLSCAASGSIFFLYAMGWYRQAPGKERELVAAISRSGVSTYYADSVKGRFTISRDNAKNTVYLQMNSLKPEDTAVYYCNRRVPVTRSRYYYWGQGTQVTVSS,high polyreactivity
21,QVQLVESGGGLVQAGGSLRLSCAASGSIFFPYAMGWYRQAPGKERELVAAIDTSSGSTYSADSVKGRFTISRDNAKNTVYLQMNSLKPEDTAVYYCAREALQYPGLKYNYWGQGTQVTVSS,low polyreactivity
22,QVQLVESGGGLVQAGGSLRLSCAASGSIFFQYAMGWYRQAPGKERELVAAISTGGSTNYADSVKGRFTISRDNAKNTVYLQMNSLKPEETAVYYCAAYSRYKGYQYDYWGQGTQVTVSS,low polyreactivity
23,QVQLVESGGGLVQAGGSLRLSCAASGSIFFRNAMGWYRQAPGKERELVAAITSGGSTYYADSVKGRFTISRDNAKNTVYLQMNSLKPEDTAVYYCNREFWRSSSYRYYYWGQGTQVTVSS,high polyreactivity
24,QVQLVESGGGLVQAGGSLRLSCAASGSIFFRNAMGWYRQAPGKERELVATIDWSGGYTDYADTVKGRFTISRDNAKNTVYLQMNSLKPEETAVYYCATGRYDRYYNFWYYYWGQGPQVTVSS,high polyreactivity
25,QVQLVESGGGLVQAGGSLRLSCAASGSIFFRYAMGWYRQAPGKERELVAAISDSGGTTYYADSVKGRFTISRDNAKNTVYLQMNSLKPEDTAVYYCAARFIYYSNRYYRYREFNYWGQGTQVTVSS,high polyreactivity
26,QVQLVESGGGLVQAGGSLRLSCAASGSIFFVYGMGWYRQAPGKERELVAAISGGITNYADSVKGRFTISRDNAKNTVNLQMNSLKPEDTAVYYCAAYTPSYGGRDYWGQATQVTVSS,low polyreactivity
27,QVQLVESGGGLVQAGGSLRLSCAASGSIFFWNDMGWYRQAPGTERELVAAISWSGGSTSYADSVKGRFTISRDNAKNTVYLQMNSLKPEDTAVYYCAADYYYRTLYGYIGMDYWGQGTQVTVSS,low polyreactivity
28,QVQLVESGGGLVQAGGSLRLSCAASGSIFFYYAMGWYRQAPGKERELVAAIDFNGGNTYYADSVKGRFTISRDNAKNTVYLQMNSLKPEDTAVYYCAAEWEGTYTTVPDEFNYWGQGTQVTVSS,high polyreactivity
29,QVQLVESGGGLVQAGGSLRLSCAASGSIFFYYAMGWYRQAPGKERELVAAINWSGVNTYYADSVKGRFTISRDNAKNTVYLQMNSLKPEDTAVYYFNAVVSLTSYGYLGYLFDYWGQGTLVTVSS,low polyreactivity
30,QVQLVESGGGLVQAGGSLRLSCAASGSIFFYYAMGWYRQAPGKERELVAAISGGGRTNYADSVKGRFTISRDNAKNTVYLQMNSLKPEDTAVYYCAADPVYWYSPMDYWGQGTQVTVSS,low polyreactivity
